Assay results: US20110256132A1 (published 2011)
* marks the point of attachment. Biotin = O=C1N[C@H]2[C@H](CS[C@H]2CCCCC(=O)*)N1

Experiments:
[1] = target: T1, artificial myostatin linear peptide 5 (cysteine pairing not given here); assay: SRU BIND reader, peptides captured on streptavidin biosensor plate
T1 construct: also called Peptide No 5
T1 peptide: Biotin-SGSGHSTESRCCRYPLTV-NH2
Experimental: (§1) Work was carried out on an SRU BIND reader (SRU Biosystems). A streptavidin biosensor plate was washed, a baseline reading taken, and biotinylated peptides captured onto the streptavidin coated biosensor plate. The plate was washed again, and a new baseline reading taken, antibody was then added and binding monitored.

[2] = target: T2, artificial myostatin linear peptide 31 (cysteine pairing not given here); assay: as above
T2 construct: also called Peptide No 31
T2 peptide: Biotin-SGSGVHQANPRGSAGPCC-NH2
Experimental: as §1

[3] = target: T3, artificial myostatin linear peptide 37 (cysteine pairing not given here); assay: as above
T3 construct: also called Peptide No 37
T3 peptide: Biotin-SGSGCCTPTKMSPINMLY-NH2
Experimental: as §1

[4] = target: T4, artificial myostatin linear peptide 27 (SMILES …); assay: as above
T4 construct: also called Peptide No 27
T4 peptide: Biotin-SGSGQKYPHTHLVHQANP-NH2
Experimental: as §1

[5] = target: T5, artificial myostatin linear peptide 47 (SMILES …); assay: as above
T5 construct: also called Peptide No 47
T5 peptide: Biotin-SGSGIIYGKIPAMVVDRC-NH2
Experimental: as §1

[6] = target: T6, artificial myostatin linear peptide 11 (SMILES …); assay: as above
T6 construct: also called Peptide No 11
T6 peptide: Biotin-SGSGTVDFEAFGWDWIIA-NH2
Experimental: as §1

[7] = target: T7, artificial myostatin linear peptide 29 (SMILES …); assay: as above
T7 construct: also called Peptide No 29
T7 peptide: Biotin-SGSGHTHLVHQANPRGSA-NH2
Experimental: as §1

[8] = target: T8, artificial myostatin linear peptide 23 (SMILES …); assay: as above
T8 construct: also called Peptide No 23
T8 peptide: Biotin-SGSGGECEFVFLQKYPHT-NH2
Experimental: as §1

[9] = target: T9, artificial myostatin linear peptide 49 (cysteine pairing not given here); assay: as above
T9 construct: also called Peptide No 49
T9 peptide: Biotin-SGSGGKIPAMVVDRCGCS-OH
Experimental: as §1

[10] = target: T10, artificial myostatin linear peptide 9 (SMILES …); assay: as above
T10 construct: also called Peptide No 9
T10 peptide: Biotin-SGSGRYPLTVDFEAFGWD-NH2
Experimental: as §1

[11] = target: T11, artificial myostatin linear peptide 13 (SMILES …); assay: as above
T11 construct: also called Peptide No 13
T11 peptide: Biotin-SGSGEAFGWDWIIAPKRY-NH2
Experimental: as §1

[12] = target: T12, mature myostatin (recombinant, dimeric) (mouse polyprotein used for in-house …, UniProt O08689 268-376); assay: ActRIIb receptor binding assay (Example 2.5), mean IC50
T12 construct: also called GDF-8; recombinant myostatin
T12 sequence: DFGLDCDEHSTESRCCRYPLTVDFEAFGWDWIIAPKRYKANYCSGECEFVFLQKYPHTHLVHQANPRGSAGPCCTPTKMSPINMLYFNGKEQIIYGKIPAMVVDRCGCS
Experimental: (§2) Recombinant soluble ActRIIb (R&D Systems 339-RBB) was coated in wells of an ELISA plate at 1 μg/ml in carbonate buffer overnight at 4° C. Plates were blocked (see Block solution above at 2.3) and washed following standard ELISA protocols. In parallel, 2 nM biotinylated myostatin (in-house, as described in 1.1, biotinylated material) was pre-incubated with an antibody dilution series consisting of 10B3, 10B3C, and a negative control (IgG1 isotype control) for 2 hours at 37° C. The biotinylated myostatin:antibody reactions were then added to the ActRIIb coated plate for 1 hour at 37° C. Standard wash procedures were followed prior to addition of 1:1000 diluted streptavidin-HRP conjugate (Dako P0397) and a further 37° C. incubation for 1 hour. Plates were again washed and assayed at absorbance 490 nm following OPD substrate (Sigma) and acid stop solution treatment Inhibition curves and IC50 values for the inhibition of myostatin activity are shown in FIG. 5 and Table 8 respectively.
H2L2 C91S_G55S F100G_Y, the developability enhanced molecule with the highest apparent potency in the A204 assay was Fc-disabled (by making the following substitutions, using EU numbering system: Leu 235 Ala; and Gly 237 Ala) as exemplified in SEQ ID NO: 99.

[13] = target: T13, human myostatin pro-peptide dimer (human, UniProt O14793 25-266); assay: ELISA, plate-coated antigen
T13 sequence: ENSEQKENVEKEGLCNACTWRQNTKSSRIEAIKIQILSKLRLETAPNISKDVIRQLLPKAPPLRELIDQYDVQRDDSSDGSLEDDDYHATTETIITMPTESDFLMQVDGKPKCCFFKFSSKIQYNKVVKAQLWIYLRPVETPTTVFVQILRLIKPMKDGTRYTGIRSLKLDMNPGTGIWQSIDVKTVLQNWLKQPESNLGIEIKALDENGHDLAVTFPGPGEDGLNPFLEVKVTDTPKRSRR
Experimental: The myostatin antigens were coated onto wells of an EIA/RIA plate (Costar) at 100 ng/well at 4° C. overnight in PBS, prior to blocking (PBS, 3% BSA) for 30 minutes at room temperature. Plates were washed (PBS, 1% BSA and 0.1% Tween20), prior to the addition of a dilution series of 10B3 in wash buffer and incubation for 2 hours at room temperature. […] A final wash step preceded addition of TMB substrate and colorimetric change which was stopped with Sulphuric acid and plates read at 450 nm.

[14] = target: T12, mature myostatin (recombinant, dimeric); assay: ELISA: inhibition of 2 nM biotinylated myostatin binding to plate-coated ActRIIb, mean IC50 (= 0.88 nM by paragraph 327)
Experimental: as §2

[15] = target: T12, mature myostatin (recombinant, dimeric); assay: BIAcore T100, antibody captured on anti-mouse IgG (C1 chip), myostatin analyte, all curves 1:1 model
Experimental: The affinity of 10B3 mouse parental and 10B3C for recombinant myostatin was assessed by BIAcore™ (surface plasmon resonance) analysis. Analysis was carried out by the use of a capture surface: anti-mouse IgG was coupled to a C1 chip by primary amine coupling for 10B3 mouse parental; and a protein A surface was created on a C1 chip by primary amine coupling for 10B3 chimera.
After capture, recombinant myostatin was passed over the surface at 64 nM, 16 nM, 4 nM, 1 nM, 0.25 nM and 0.0625 nM, with a buffer injection (i.e. 0 nM) used for double referencing. There was a regeneration step between each analyte injection, after which the new antibody capture event occurred before the next injection of myostatin. The data was analysed using both the 1:1 model and the Bivalent model inherent to the T100 machines analysis software (see Table 6). Both capture surfaces could be regenerated using 100 mM phosphoric acid, the work was carried out using HBS-EP as the running buffer and using 25° C. as the analysis temperature.

binding result [1]: no binding
binding result [2]: no binding
binding result [3]: no binding
binding result [4]: no binding
binding result [5]: no binding
binding result [6]: no binding
binding result [7]: no binding
binding result [8]: no binding
binding result [9]: no binding
binding result [10]: no binding
binding result [11]: no binding
IC50 [12]: 0.161 nM
binding result [13]: no binding
IC50 [14]: 0.132 µg/mL
Kd [15]: 1 nM
B1: mouse monoclonal antibody 10B3 (antibody, V domains shown)
VH: EVQLQQSGPELVKPGASVKISCKASGYSFTGYFMHWVKQSHGNILDWIGNIYPYNGVSNYNQRFKAKATLTVDKSSSTAYMELRSLTSEDSAVYYCARRYYYGTGPADWYFDVWGTGTTVTVSS
VL: DIKMTQSPSSMYASLRERVTITCKASQDINSYLSWFQQKPGKSPKTLIYRANRLVDGVPSRFSGSGSGQDYSLTISSLEYEDMGIYYCLQCDEFPLTFGAGTKLELK
notes: Mouse IgG2a/kappa from hybridoma; also called 10B3 mouse parental; 10B3 parental
